The text below walks through data of patent US11472839B2, “Peptide capable of forming a gel for use in tissue engineering and bioprinting” (KING ABDULLAH UNIVERSITY OF SCIENCE AND TECHNOLOGY, priority 2017, dated 2022).

A short description of data set [1]: Peptide hydrogel preparation / self-assembly (gelation). Format: physicochemical. The note with it: FIG. 1A. How it is done:
Lyophilized peptides were dissolved in milliQ water and vortexed to get a homogenous solution. Subsequently, 10× phosphate buffered saline at the final concentration of 1× was added to the peptide solution and vortexed shortly. Gelation occurred within few seconds to minutes or hours depending on the peptide sequence.

A short description of data set [2]: Transmission electron microscopy (TEM) of peptide nanofibers. It is filed as physicochemical. The following applies: TEM images (13 for IVFK, 10 for IVZK), distribution curve; IVZK shows three types of average diameter, 8.6 nm most abundant, 4.0 nm single monomer fiber. How it is done: The TEM studies were carried out on two different instruments; Tecnai G2 Spirit Twin with accelerating voltage of 120 kV and FEI Titan G2 80-300 CT with 300 kV emission gun. The Cryo TEM imaging was performed in low dose mode by using FEI's Titan Krios operating at 300 kV. The TEM samples for peptide nanofiber were prepared from diluted peptide hydrogel in water. One drop of this solution was then introduced on a carbon coated copper grid that has been treated with glow discharge plasma before being used. The drop was then kept for 10 minutes before being blotted using filter paper. To get a better contrast, the grid was stained using 2% uranyl acetate for 1 minute and then was dried for at least one day before imaging. The diameter of IVFK and IVZK peptide nanofibers were measured using an image-analysis software ImageJ from 13 and 10 TEM images, respectively. A size distribution histogram for each peptide nanofiber was created in Origin to calculate the average diameter of both peptides. See e.g. FIG. 1B.

Non-standard residues stand in square brackets, D forms with d. Cha = N[C@@H](CC1CCCCC1)C(=O)O

Consider “Ac-IVOK-NH2 (Ac-IV[Cha]K-NH2; SMILES CC[C@H](C)[C@H](NC(C)=O)C(=O)N[C@H](C(=O)N[C@@H](CC1CCCCC1)C(=O)N[C@@H](CCCCN)C(N)=O)C(C)C) [IVZK, ultrashort self-assembling peptide; Z undefined, probably cyclohexylalanine]”, for which, in data set [1], the self-assembly into hydrogel result is recorded as “self-assemble into macromolecular nanofibrous hydrogels”.
In data set [2], Ac-IVFK-NH2 registered an average fiber diameter of 10.3 nm. Besides, the self-assembly into hydrogel entry in data set [1] is on record as “self-assemble into macromolecular nanofibrous hydrogels”.
